Test results taken from paper PMC8759595.

Target: endogenous VAPB (COS-7 cells)
Test: co-immunoprecipitation (Myc-TRAP) with quantified immunoblot
Conditions: COS-7 cell lysate treated with λ-phosphatase before IP, relative to phosphatase-inhibitor sample; parent: est. 0.5; read off a plot

| other: remaining VAPB binding (% of untreated) (% of untreated) | Substance |
| --- | --- |
| 22 | Myc-ACBD5 (from UniProt Q5T8D3-2) S259E; S261E; S263E |

Same assay, conditions: COS-7 cell lysate treated with λ-phosphatase before IP, relative to phosphatase-inhibitor sample; parent: est. 4.5; read off a plot

| other: remaining VAPB binding (% of untreated) (% of untreated) | Substance |
| --- | --- |
| 7.5 | Myc-ACBD5 (from UniProt Q5T8D3-2) S259E |
| 21 | Myc-ACBD5 (from UniProt Q5T8D3-2) S261E |
| 8 | Myc-ACBD5 (from UniProt Q5T8D3-2) S263E |

Same assay, conditions: COS-7 cell lysate; at least three independent IPs; parent: est. 1.0; read off a plot

| Substance | ratio to parent |
| --- | --- |
| Myc-ACBD5 (from UniProt Q5T8D3-2) S259A | 0.81 |
| Myc-ACBD5 (from UniProt Q5T8D3-2) S259A; S261A | 0.3 |
| Myc-ACBD5 (from UniProt Q5T8D3-2) S259A; S261A; S263A | 0.15 |
| Myc-ACBD5 (from UniProt Q5T8D3-2) T258A; S259A | 0.53 |

More lines, now with the values ahead:

| ratio to parent | Substance |
| --- | --- |
| 0.35 | Myc-ACBD5 (from UniProt Q5T8D3-2) S261A |
| 0.22 | Myc-ACBD5 (from UniProt Q5T8D3-2) S261A; S263A |
| 0.42 | Myc-ACBD5 (from UniProt Q5T8D3-2) S263A |

Target: endogenous VAPB (COS-7 cells)
Test: co-immunoprecipitation (anti-FLAG) with quantified immunoblot
Conditions: COS-7 cell lysate; n = 5; parent: est. 1.0; read off a plot

| ratio to parent | Substance |
| --- | --- |
| 1.7 | FLAG-ACBD4 (from UniProt Q8NC06) S166A; S169A; S171A |
| 4.4 | FLAG-ACBD4 (from UniProt Q8NC06) S166E; S169E; S171E |
